Laboratory results: patent publication US20090181459A1 (published 2009)

Assays:
[1] = target: mouse glucocorticoid-induced TNF receptor ligand (mGITRL), expressed on the cell surface (mouse) (UniProt Q7TS55); assay: flow cytometry, spleen cells gated on F4/80+ macrophages; isotype control background
[2] = target: mouse glucocorticoid-induced TNF receptor ligand (mGITRL), expressed on the cell surface (mouse) (UniProt Q7TS55); assay: flow cytometry, spleen cells gated on B220+ B cells; isotype control background
[3] = target: mouse glucocorticoid-induced TNF receptor ligand (mGITRL), expressed on the cell surface (mouse) (UniProt Q7TS55); assay: flow cytometry, peritoneal cells gated on F4/80+; isotype control background
[4] = target: mouse glucocorticoid-induced tumor necrosis factor receptor (mGITR), expressed on the cell surface (mouse) (UniProt O35714); assay: flow cytometry on Th2 clone R2.4; isotype control background
[5] = target: mouse glucocorticoid-induced tumor necrosis factor receptor (mGITR), expressed on the cell surface (mouse) (UniProt O35714); assay: flow cytometry on Th1 clone R2.2; isotype control background
[6] = target: T1, mouse glucocorticoid-induced tumor necrosis factor receptor (mGITR), expressed on the cell surface (mouse, UniProt O35714 20-228); assay: cell-based or functional assay
T1 sequence (looked up): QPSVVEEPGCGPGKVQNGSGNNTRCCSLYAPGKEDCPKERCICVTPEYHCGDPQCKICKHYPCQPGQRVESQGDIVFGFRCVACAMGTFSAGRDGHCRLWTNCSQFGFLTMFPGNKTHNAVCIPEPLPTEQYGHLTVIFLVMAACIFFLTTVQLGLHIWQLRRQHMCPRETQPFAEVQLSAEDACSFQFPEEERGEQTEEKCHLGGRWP

Q: With “isotype control antibody (rat anti-canine CD8 antibody, IgG1)” as the molecule, how does the Median fluorescence intensity (MFI) [1] read?
A: 25.4

Q: And the Median fluorescence intensity (MFI) [2]?
A: 7.7

Q: And the MFI [3]?
A: 255

Q: And the Median fluorescence intensity (MFI) [4]?
A: 50.5

Q: And the Median fluorescence intensity (MFI) [5]?
A: 35.2

B1: mouse glucocorticoid-induced TNF receptor ligand (mGITRL), expressed on the cell surface (ligand)
chain: MEEMPLRESSPQRAERCKKSWLLCIVALLLMLLCSLGTLIYTSLKPTAIESCMVKFELSSSKWHMTSPKPHCVNTTSDGKLKILQSGTYLIYGQVIPVDKKYIKDNAPFVVQIYKKNDVLQTLMNDFQILPIGGVYELHAGDNIYLKFNSKDHIQKNNTYWGIILMPDLPFIS
Q: Which “Luciferase activity (NF-kB reporter plasmid), 48-h incubation” value [6] does the source give for B1 here?
A: 6 fold
